# In the DeepSol protein solubility set:
# Assay: soluble on expression in E. coli; label from the status in PepcDB or PDB records
row,Sequence,soluble on expression in E. coli
1,MGHHHHHHSHMNDSDSTPPKKKMRKTENGMYACDLCDKIFQKSSSLLRHKYEHTGKRPHECGICKKAFKHKHHLIEHMRLHSGEKPYQCDKCGKRFSHSGSYSQHMNHRYSYCKREAEERDSTEQEEAGPEILSNEHVGARASP,soluble
2,AKDFEWNFAATLSMDKNKVTRLYGDNDVVYNVDSDRNIQKEGNLFLGESRNTIYIWKTGGIAQEIDMDRLNKINWNGYNVNPGDLYPLDYDNNGQIDQNDRVVIGSTDPKFYGGFSTDFSWKGLSLNAVFSYSYGAKKLSPWYETLIGSTGSGVASTDLLDRWTPENTDAEFPRVLAGFDYNHYGASSMDFSVQKASFLRLSALTLAYTFPTKVINALKLTNLRVYATGSNLFCLTNYNGYDPETGDWYPPTRMYTFGLNLAF,not soluble
3,MSLIIKNAKVVTHDMQLKEPWAIAGHVHDSIKNTFITLEDSEGNIGIGSCATQNDSEESVKECFDILESFSSSLVGKELGLNENTFGWIASELPLNTEANAAVDIAIHDLWAKREEKTLVDALGKKHQSFDTSITIGVASLEKTIEMAKKHIGNGFSILKIKIGDCVEEDIERMKALFELKPEKIKIRVDANRGYSKEELIKFYEKTLHLGLELIEQPMEVDQNNEMLYFPEEIRKICVADESLQNFDDAVRLLKEPKPFGVFNIKLMKCGGVFAAKKIASLAEENGIELMWGCFDESKISISAALHTALSCENTRYIDLDGFFDLGWDLIEGGYRCENGIMSAIERPGLGVFSEGHHHHHH,soluble
4,GVSETAPASRRGELAVCDAVSGWVTDRRTAVDLRGREVEVLGEVPAAGGSPLRQYFFETRCKADNAEEGGPGAGGGGCRGVDRRHWVSECKAKQSYVRALTADAQGRVGWRWIRIDTACVCTLLSRTGRA,soluble
5,GPGSMRNLVREGITPPVLVFVQSVERSKELYEEIRMEGLHMAIMHAKMTVEQREETVLQFRLGKIWVLVTTELLARGIDFKNVGTVINFDFPATVDSYIHRVGRTGRAGKEGTAITFFTEDDKERLPPIAKVMQDSGNAVEDWILGIKVDRSTRRRLERTTPQRTIVSTRKRMLVAQQRVQRQYRRLEAEKAAKQASKRSKGCGDCDRDDGDDSTDDA,soluble
6,VKILVDENMPYARDLFSRLGEVTAVPGRPIPVAQLADADALMVRSVTKVNESLLAGKPIKFVGTATAGTDHVDEAWLKQAGIGFSAAPGCNAIAVVEYVFSSLLMLAERDGFSLYDRTVGIVGVGNVGRRLQARLEALGIKTLLCDPPRADRGDEGDFRSLDELVQRADILTFHTPLFKDGPYKTLHLADEKLIRSLKPGAILINACRGAVVDNTALLTCLNEGQKLSVVLDVWEGEPELNVELLKKVDIGTSHIAGYTLEGKARGTTQVFEAYSKFIGHEQHVALDTLLPAPEFGRITLHGPLDQPTLKRLVHLVYDVRRDDAPLRKVAGIPGEFDKLRKNYLERREWSSLYVICDDASAASLLCKLGFNAVHHPAR,soluble
7,MGFSDLRDKVVIVTGASMGIGRAIAERFVDEGSKVIDLSIHDPGEAKYDHIECDVTNPDQVKASIDHIFKEYGSISVLVNNAGIESYGKIESMSMGEWRRIIDVNLFGYYYASKFAIPYMIRSRDPSIVNISSVQASIITKNASAYVTSKHAVIGLTKSIALDYAPLLRCNAVCPATIDTPLVRKAAELEVGSDPMRIEKKISEWGHEHPMQRIGKPQEVASAVAFLASREASFITGTCLYVDGGLSIRAPISTPELEHHHHHH,soluble
8,MSLGSVNRVYLARLSRMSVLGPLGESFGRVRDVVISISIVRQQPRVLGLVVDLATRRKIFIPILRVAAIEPHAVTLSTGNVSLHRFEQRPGEALALGQVLDTLVKVNDPALPELAGVDVVVTDLGVEQTRSRDWMVTRVAVRTQRRLRRRCPVHVVDWHNVAGLTPSALAMPGQDVAQLLDQFEGWKAVDVADAIRGLPPKRRHEVFKALHDKRLADVLQELPELDQAEVLSQLGTERAADVLEEMDPDDAADLLAVLNPTEAELLLTRMDPGDSGQVRRLLTHSPDTAGGLMTSDPVVLTPDTSIAEALARVRDPDLTPALASMVFVARPPTATPTGHYLGCVHLQRLLRDPPAELVGGVVDTDLLTLTPETPLAAVTRYFAAYNLVCGPVVDDENHLLGAVTVDDLLDHLLPHDWRVDMPELDPSGAPDRPGGPREGHHHHHH,soluble
